In the assay the target is VisAG5 (S. gordonii VisA region containing its 7 G5 domains, residues 138-698, C-terminal His-tag) (Streptococcus gordonii DL1). The assay can be described thus: SDS-PAGE and western blot against the His-tag (denaturing); purified VisAG5 in Laemmli buffer with 2.5% betamercaptoethanol; size of the band.

“VisAG5 (S. gordonii VisA region containing its 7 G5 domains, residues 138-698, C-terminal His-tag) (domain or fragment)”: the stoichiometry N turned out to be 2.

These data come from PMC11633186.
